Reference: patent publication US9958461B2, “Detection of protein to protein interactions” (THE GOVERNING COUNCIL OF THE UNIVERSITY OF TORONTO, priority 2013, dated 2018)

B1: SLA (protein, UniProt Q13239 2-276, looked up)
Src-like-adapter: GNSMKSTPAPAERPLPNPEGLDSDFLAVLSDYPSPDISPPIFRRGEKLRVISDEGGWWKAISLSTGRESYIPGICVARVYHGWLFEGLGRDKAEELLQLPDTKVGSFMIRESETKKGFYSLSVRHRQVKHYRIFRLPNNWYYISPRLTFQCLEDLVNHYSEVADGLCCVLTTPCLTQSTAAPAVRASSSPVTLRQKTVDWRRVSRLQEDPEGTENPLGVDESLFSYGLRESIASYLSLTSEDNTSFDRKKKSISLMYGGSKRKSSFFSSPPYFED
B2: PRKCZ (protein, UniProt Q05513 1-592, looked up)
Protein kinase C zeta type: MPSRTGPKMEGSGGRVRLKAHYGGDIFITSVDAATTFEELCEEVRDMCRLHQQHPLTLKWVDSEGDPCTVSSQMELEEAFRLARQCRDEGLIIHVFPSTPEQPGLPCPGEDKSIYRRGARRWRKLYRANGHLFQAKRFNRRAYCGQCSERIWGLARQGYRCINCKLLVHKRCHGLVPLTCRKHMDSVMPSQEPPVDDKNEDADLPSEETDGIAYISSSRKHDSIKDDSEDLKPVIDGMDGIKISQGLGLQDFDLIRVIGRGSYAKVLLVRLKKNDQIYAMKVVKKELVHDDEDIDWVQTEKHVFEQASSNPFLVGLHSCFQTTSRLFLVIEYVNGGDLMFHMQRQRKLPEEHARFYAAEICIALNFLHERGIIYRDLKLDNVLLDADGHIKLTDYGMCKEGLGPGDTTSTFCGTPNYIAPEILRGEEYGFSVDWWALGVLMFEMMAGRSPFDIITDNPDMNTEDYLFQVILEKPIRIPRFLSVKASHVLKGFLNKDPKERLGCRPQTGFSDIKSHAFFRSIDWDLLEKKQALPPFQPQITDDYGLDNFDTQFTSEPVQLTPDDEDAIKRIDQSEFEGFEYINPLLLSTEESV
B3: PTPN22 (protein, UniProt Q9Y2R2 1-807, looked up)
Tyrosine-protein phosphatase …: MDQREILQKFLDEAQSKKITKEEFANEFLKLKRQSTKYKADKTYPTTVAEKPKNIKKNRYKDILPYDYSRVELSLITSDEDSSYINANFIKGVYGPKAYIATQGPLSTTLLDFWRMIWEYSVLIIVMACMEYEMGKKKCERYWAEPGEMQLEFGPFSVSCEAEKRKSDYIIRTLKVKFNSETRTIYQFHYKNWPDHDVPSSIDPILELIWDVRCYQEDDSVPICIHCSAGCGRTGVICAIDYTWMLLKDGIIPENFSVFSLIREMRTQRPSLVQTQEQYELVYNAVLELFKRQMDVIRDKHSGTESQAKHCIPEKNHTLQADSYSPNLPKSTTKAAKMMNQQRTKMEIKESSSFDFRTSEISAKEELVLHPAKSSTSFDFLELNYSFDKNADTTMKWQTKAFPIVGEPLQKHQSLDLGSLLFEGCSNSKPVNAAGRYFNSKVPITRTKSTPFELIQQRETKEVDSKENFSYLESQPHDSCFVEMQAQKVMHVSSAELNYSLPYDSKHQIRNASNVKHHDSSALGVYSYIPLVENPYFSSWPPSGTSSKMSLDLPEKQDGTVFPSSLLPTSSTSLFSYYNSHDSLSLNSPTNISSLLNQESAVLATAPRIDDEIPPPLPVRTPESFIVVEEAGEFSPNVPKSLSSAVKVKIGTSLEWGGTSEPKKFDDSVILRPSKSVKLRSPKSELHQDRSSPPPPLPERTLESFFLADEDCMQAQSIETYSTSYPDTMENSTSSKQTLKTPGKSFTRSKSLKILRNMKKSICNSCPPNKPAESVQSNNSSSFLNFGFANRFSKPKGPRNPPPTWNI
B4: CAV2 (protein, UniProt P51636 1-162, looked up)
Caveolin-2: MGLETEKADVQLFMDDDSYSHHSGLEYADPEKFADSDQDRDPHRLNSHLKLGFEDVIAEPVTTHSFDKVWICSHALFEISKYVMYKFLTVFLAIPLAFIAGILFATLSCLHIWILMPFVKTCLMVLPSVQTIWKSVTDVIIAPLCTSVGRCFSSVSLQLSQD
B5: JUP (protein, UniProt P14923 1-745, looked up)
Junction plakoglobin: MEVMNLMEQPIKVTEWQQTYTYDSGIHSGANTCVPSVSSKGIMEEDEACGRQYTLKKTTTYTQGVPPSQGDLEYQMSTTARAKRVREAMCPGVSGEDSSLLLATQVEGQATNLQRLAEPSQLLKSAIVHLINYQDDAELATRALPELTKLLNDEDPVVVTKAAMIVNQLSKKEASRRALMGSPQLVAAVVRTMQNTSDLDTARCTTSILHNLSHHREGLLAIFKSGGIPALVRMLSSPVESVLFYAITTLHNLLLYQEGAKMAVRLADGLQKMVPLLNKNNPKFLAITTDCLQLLAYGNQESKLIILANGGPQALVQIMRNYSYEKLLWTTSRVLKVLSVCPSNKPAIVEAGGMQALGKHLTSNSPRLVQNCLWTLRNLSDVATKQEGLESVLKILVNQLSVDDVNVLTCATGTLSNLTCNNSKNKTLVTQNSGVEALIHAILRAGDKDDITEPAVCALRHLTSRHPEAEMAQNSVRLNYGIPAIVKLLNQPNQWPLVKATIGLIRNLALCPANHAPLQEAAVIPRLVQLLVKAHQDAQRHVAAGTQQPYTDGVRMEEIVEGCTGALHILARDPMNRMEIFRLNTIPLFVQLLYSSVENIQRVAAGVLCELAQDKEAADAIDAEGASAPLMELLHSRNEGTATYAAAVLFRISEDKNPDYRKRVSVELTNSLFKHDPAAWEAAQSMIPINEPYGDDMDATYRPMYSSDVPLDPLEMHMDMDGDYPIDTYSDGLRPPYPTADHMLA
B6: DOK1 (protein, UniProt Q99704 1-481, looked up)
Docking protein 1: MDGAVMEGPLFLQSQRFGTKRWRKTWAVLYPASPHGVARLEFFDHKGSSSGGGRGSSRRLDCKVIRLAECVSVAPVTVETPPEPGATAFRLDTAQRSHLLAADAPSSAAWVQTLCRNAFPKGSWTLAPTDNPPKLSALEMLENSLYSPTWEGSQFWVTVQRTEAAERCGLHGSYVLRVEAERLTLLTVGAQSQILEPLLSWPYTLLRRYGRDKVMFSFEAGRRCPSGPGTFTFQTAQGNDIFQAVETAIHRQKAQGKAGQGHDVLRADSHEGEVAEGKLPSPPGPQELLDSPPALYAEPLDSLRIAPCPSQDSLYSDPLDSTSAQAGEGVQRKKPLYWDLYEHAQQQLLKAKLTDPKEDPIYDEPEGLAPVPPQGLYDLPREPKDAWWCQARVKEEGYELPYNPATDDYAVPPPRSTKPLLAPKPQGPAFPEPGTATGSGIKSHNSALYSQVQKSGASGSWDCGLSRVGTDKTGVKSEGST
B7: GAB1 (protein, UniProt Q13480 2-694, looked up)
GRB2-associated-binding …: SGGEVVCSGWLRKSPPEKKLKRYAWKRRWFVLRSGRLTGDPDVLEYYKNDHAKKPIRIIDLNLCQQVDAGLTFNKKEFENSYIFDINTIDRIFYLVADSEEEMNKWVRCICDICGFNPTEEDPVKPPGSSLQAPADLPLAINTAPPSTQADSSSATLPPPYQLINVPPHLETLGIQEDPQDYLLLINCQSKKPEPTRTHADSAKSTSSETDCNDNVPSHKNPASSQSKHGMNGFFQQQMIYDSPPSRAPSASVDSSLYNLPRSYSHDVLPKVSPSSTEADGELYVFNTPSGTSSVETQMRHVSISYDIPPTPGNTYQIPRTFPEGTLGQTSKLDTIPDIPPPRPPKPHPAHDRSPVETCSIPRTASDTDSSYCIPTAGMSPSRSNTISTVDLNKLRKDASSQDCYDIPRAFPSDRSSSLEGFHNHFKVKNVLTVGSVSSEELDENYVPMNPNSPPRQHSSSFTEPIQEANYVPMTPGTFDFSSFGMQVPPPAHMGFRSSPKTPPRRPVPVADCEPPPVDRNLKPDRKVKPAPLEIKPLPEWEELQAPVRSPITRSFARDSSRFPMSPRPDSVHSTTSSSDSHDSEENYVPMNPNLSSEDPNLFGSNSLDGGSSPMIKPKGDKQVEYLDLDLDSGKSTPPRKQKSSGSGSSVADERVDYVVVDQQKTLALKSTREAWTDGRQSTESETPAKSVK
B8: LCP2 (protein, UniProt Q13094 1-533, looked up)
Lymphocyte cytosolic protein 2: MALRNVPFRSEVLGWDPDSLADYFKKLNYKDCEKAVKKYHIDGARFLNLTENDIQKFPKLRVPILSKLSQEINKNEERRSIFTRKPQVPRFPEETESHEEDNGGWSSFEEDDYESPNDDQDGEDDGDYESPNEEEEAPVEDDADYEPPPSNDEEALQNSILPAKPFPNSNSMYIDRPPSGKTPQQPPVPPQRPMAALPPPPAGRNHSPLPPPQTNHEEPSRSRNHKTAKLPAPSIDRSTKPPLDRSLAPFDREPFTLGKKPPFSDKPSIPAGRSLGEHLPKIQKPPLPPTTERHERSSPLPGKKPPVPKHGWGPDRRENDEDDVHQRPLPQPALLPMSSNTFPSRSTKPSPMNPLPSSHMPGAFSESNSSFPQSASLPPYFSQGPSNRPPIRAEGRNFPLPLPNKPRPPSPAEEENSLNEEWYVSYITRPEAEAALRKINQDGTFLVRDSSKKTTTNPYVLMVLYKDKVYNIQIRYQKESQVYLLGTGLRGKEDFLSVSDIIDYFRKMPLLLIDGKNRGSRYQCTLTHAAGYP

These molecules were tested against T1, EGFR-L858R (Homo sapiens, UniProt P00533, L858R) (assay: MaMTH EGFR-interactor screen, lentiviral preys against EGFR-L858R bait (interaction score)). Details: MaMTH interaction score of prey with EGFR-L858R bait.
T1 construct: with the advantage of testing full-length integral membrane proteins; (GGGGS)2 linker-Cub (human ubiquitin aa 35-76)-GAL4(1-147)-mNFkB(364-550) (C); expressed in transfected cells
Assay type: cell-based
Summary of the method: (§1)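 5×GAL4UAS-luciferase HEK293T reporter cells were lentivirally infected with preys (MOI ~0.3-0.4) and puromycin-selected ≥48 h. They were then transfected in triplicate with the EGFR bait, and luciferase was read 24 h later. Score is fold-change over averaged negative-control preys; >1 denotes interaction.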
In the case of B1, the EGFR-L858R mean is reported as 1.16.
With B2 the EGFR-L858R mean was 0.89.
B3 gave an EGFR-L858R mean of 0.36.
In the case of B4, the EGFR-L858R mean is reported as 6.58.
B5 was tested, and the EGFR-L858R mean was 2.51.
Molecule B6 has an EGFR-L858R mean of 13.10.
Molecule B7 has an EGFR-L858R mean of 2.30.
Molecule B8 has an EGFR-L858R mean of 6.29.

The molecules below were run on EGFR-Wt (assay: MaMTH EGFR-interactor screen, lentiviral preys against EGFR-wildtype bait (interaction score)). Details: ratio of EGFR-Wt mean to EGFR-L858R mean interaction score.
Assay type: cell-based, human
Summary of the method: as §1
For B1, the Wt/L858R was 2.40.
For B2, the Wt/L858R was 2.79.
In the case of B3, the Wt/L858R is reported as 8.23.
B4 gave a Wt/L858R of 0.39.
With B5 the Wt/L858R was 0.39.
With B6 the Wt/L858R was 0.39.
In the case of B7, the Wt/L858R is reported as 0.41.
For B8, the Wt/L858R was 0.43.

Each molecule was assayed against T2, EGFR-Wt (Homo sapiens, UniProt P00533) in the same assay as above. Details: MaMTH interaction score of prey with EGFR-Wt bait, mean.
T2 construct: with the advantage of testing full-length integral membrane proteins; (GGGGS)2 linker-Cub (human ubiquitin aa 35-76)-GAL4(1-147)-mNFkB(364-550) (C); expressed in transfected cells
Assay type: cell-based
Summary of the method: as §1
B1 gave an EGFR-Wt mean of 2.78.
For B2, the EGFR-Wt mean was 2.49.
In the case of B3, the EGFR-Wt mean is reported as 2.99.
For B4, the EGFR-Wt mean was 2.57.
B5 showed an EGFR-Wt mean of 0.98.
Molecule B6 has an EGFR-Wt mean of 5.17.
Molecule B7 has an EGFR-Wt mean of 0.93.
For B8, the EGFR-Wt mean was 2.71.
